Target: the molecule itself
Test: crystal structure; purified GF combined with 1.2 M excess of purified, deglycosylated receptor GBD; buffer exchanged to 10 mM Tris-HCl, 40 mM NaCl, pH 8.0; BMPR2-activin B crystals in 14% PEG 3K, 175 mM (NH4)2SO4, 100 mM BisTris pH 5.4; ACVR2A-activin A crystals in 17% PEG 3K, 100 NaCitrate pH 5.8

B1: activin B (ligand, human (by the printed accession), UniProt P09529 293-407, looked up)
chain: GLECDGRTNLCCRQQFFIDFRLIGWNDWIIAPTGYYGNYCEGSCPAYLAGVPGSASSFHTAVVNQYRMRGLNPGTVNSCCIPTKLSTMSMLYFDDEYNIVKRDVPNMIVEECGCA
notes: activin B (inhibin beta B chain), full mature moiety, residues 293 to 407; disulfide linked dimer; also called ActB; INHBB
B1: binds.

B2: activin A (ligand, human (by the printed accession), UniProt P08476 311-426, looked up)
chain: GLECDGKVNICCKKQFFVSFKDIGWNDWIIAPSGYHANYCEGECPSHIAGTSGSSLSFHSTVINHYRMRGHSPFANLKSCCVPTKLRPMSMLYYDDGQNIIKKDIQNMIVEECGCS
notes: activin A (inhibin beta A chain), full mature moiety, residues 311 to 426; disulfide linked dimer; it was removed with the prodomain; also called ActA; INHBA
B2: binds.

From PMC9234707, “Type II BMP and activin receptors BMPR2 and ACVR2A share a conserved mode of growth factor recognition” (The Journal of Biological Chemistry, 2022)
